{
  "source": "patent US20120316071A1",
  "about": "(published 2012)",
  "binders": {"B1": {"name": "Fab VH6-1_IGHD3-3*01_IGHJ4*01 & V4-3_IGLJ4*01 (Fab, V domains shown)", "VH": "QVQLQQSGPGLVKPSQTLSLTCAISGDSVSSNSAAWNWIRQSPSRGLEWLGRTYYRSKWYNDYAVSVKSRITINPDTSKNQFSLQLNSVTPEDTAVYYCAREYYDFWSGYYTDYFDYWGQGTLVTVSS", "VL": "QPVLTQPTSLSASPGASARLTCTLRSGINLGSYRIFWYQQKPESPPRYLLSYYSDSSKHQGSGVPSRFSGSKDASSNAGILVISGLQSEDEADYYCMIWHSSASFVFGGGTQLIIL", "notes": "Tested as a purified germline Fab made in E. coli; The VH was cloned into plasmid A (CH1 constant region, His6 and Flag tags) and the lambda VL into plasmid E (lambda CL)"}, "B2": {"name": "Fab VH1-46_IGHD6-6*01_IGHJ1*01 S102A/S103P/S104F (APF) & L6_IGKJ1*01 (Fab, V domains shown)", "VH": "QVQLVQSGAEVKKPGASVKVSCKASGYTFTSYYMHWVRQAPGQGLEWMGIINPSGGSTSYAQKFQGRVTMTRDTSTSTVYMELSSLRSEDTAVYYCAREEYAPFSAEYFQHWGQGTLVTVSS", "VL": "not shown", "notes": "Tested as a Fab made in E. coli; also called H:APF & L:wt; APF triple mutant"}, "B3": {"name": "Fab VH1-46_IGHD6-13*01_IGHJ4*01 & B3_IGKJ1*01 (Fab, V domains shown)", "VH": "B2 VH with E100G, A102S, P103S, F104S, S105W, A106Y, E107D, Q110D, H111Y", "VL": "not shown", "notes": "Germline Fab made in E. coli; VH was cloned into Plasmid A (CH1, His6 and Flag tags) and the kappa VL into Plasmid C (kappa CL)"}, "B4": {"name": "Fab VH1-46_IGHD6-6*01_IGHJ1*01 & L6_IGKJ1*01 (Fab, V domains shown)", "VH": "B2 VH with A102S, P103S, F104S", "VL": "not shown", "notes": "Only variable domains are tied to the molecule; Tested as a Fab made in E. coli: heavy chain from Plasmid A (CH1 constant region, His6 and Flag tags), kappa light chain from Plasmid C (kappa CL); also called parent Hit Fab against DLL4; VH1-46_IGHD6-6*01_IGHJ1*01 & L6_IGKJ1*01 (parental)"}},
  "key": {"[1]": {"target": "T1, Recombinant Human DLL4 (R&D Systems Cat#1506-D4/CF) (human, UniProt Q9NR61 27-524)", "T1 construct": "Bought recombinant protein; also called rHuman DLL4; delta-like protein 4", "assay": "MSD Multispot ECL, antigen spotted on plate, Fab at 240 nM; blank spot 316"}, "[2]": {"target": "T2, rHuman P-Cadherin/Fc Chimera, CF (R&D Systems Cat#861-PC) (human, UniProt P22223 108-654)", "T2 construct": "Bought Fc chimera; Fc part of the bought chimera not given", "assay": "MSD Multispot ECL, antigen spotted on plate, Fab at 240 nM; blank spot 316"}, "[3]": {"target": "T3, rHuman CD44/Fc Chimera, CF (R&D Systems Cat#3660-CD) (human, UniProt P16070 21-220)", "T3 construct": "Bought Fc chimera; Fc part of the bought chimera not given", "assay": "MSD Multispot ECL, antigen spotted on plate, Fab at 240 nM; blank spot 316"}, "[4]": {"target": "T4, rHuman Notch-1/Fc Chimera, CF (R&D Systems Cat#3647-TK) (human, UniProt P46531 19-526)", "T4 construct": "Bought Fc chimera; Fc part of the bought chimera not given", "assay": "MSD Multispot ECL, antigen spotted on plate, Fab at 240 nM; blank spot 316"}, "[5]": {"target": "T5, rHuman Erythropoietin R/Fc Chimera, CF (R&D Systems Cat#963-ER) (human, UniProt P19235 25-250)", "T5 construct": "Bought Fc chimera; also called EPO R/Fc; Epo R; Fc part of the bought chimera not given", "T5 sequence (looked up)": "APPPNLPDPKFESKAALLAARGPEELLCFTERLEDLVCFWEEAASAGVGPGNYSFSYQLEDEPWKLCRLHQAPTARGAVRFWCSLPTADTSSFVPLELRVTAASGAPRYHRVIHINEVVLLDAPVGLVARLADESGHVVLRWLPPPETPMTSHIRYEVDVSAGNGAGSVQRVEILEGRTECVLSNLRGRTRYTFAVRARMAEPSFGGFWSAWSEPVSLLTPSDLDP", "assay": "MSD Multispot ECL, antigen spotted on plate, Fab at 240 nM; blank spot 316"}, "[6]": {"target": "T6, rHuman EGF R/Fc Chimera, CF (R&D Systems Cat#344-ER) (human, UniProt P00533 25-645)", "T6 construct": "Bought reagent; also called epidermal growth factor receptor; Fc part of the bought chimera not given", "assay": "ECL Multispot (MSD) assay, antigen spotted on plate, 10 nM Fab; blank spot of this row 472"}, "[7]": {"target": "T7, rHuman CD44/Fc Chimera, CF (R&D Systems Cat#3660-CD) (human, UniProt P16070 21-220)", "T7 construct": "Bought reagent; Fc part of the bought chimera not given", "assay": "ECL Multispot (MSD) assay, antigen spotted on plate, 10 nM Fab; blank spot of this row 472"}, "[8]": {"target": "T8, rHuman Notch-1/Fc Chimera, CF (R&D Systems Cat#3647-TK) (human, UniProt P46531 19-526)", "T8 construct": "Bought recombinant protein; Fc part of the bought chimera not given", "assay": "Multispot ECL (MSD), antigen spotted on plate, Fab 500 nM; blank spot 680"}, "[9]": {"target": "T9, Recombinant Human DLL4 (R&D Systems Cat#1506-D4/CF) (human, UniProt Q9NR61 27-524)", "T9 construct": "Bought recombinant protein; also called rHuman DLL4; delta-like protein 4", "assay": "Multispot ECL (MSD), antigen spotted on plate, Fab 500 nM; blank spot 680"}, "[10]": {"target": "T10, rHuman Erythropoietin R/Fc Chimera, CF (R&D Systems Cat#963-ER) (human, UniProt P19235 25-250)", "T10 construct": "Bought recombinant protein; also called EPO R/Fc; Epo R; Fc part of the bought chimera not given", "T10 sequence (looked up)": "T5 sequence (looked up)", "assay": "Multispot ECL (MSD), antigen spotted on plate, Fab 500 nM; blank spot 680"}, "[11]": {"target": "T11, rHuman IGF-1 sR, CF (R&D Systems Cat#391-GR) (human, UniProt P08069 31-932)", "T11 construct": "Bought recombinant soluble receptor; also called insulin-like growth factor-1 soluble receptor", "assay": "Multispot ECL (MSD), antigen spotted on plate, Fab 500 nM; blank spot 680"}, "[12]": {"target": "T12, rHuman Notch-1/Fc Chimera, CF (R&D Systems Cat#3647-TK) (human, UniProt P46531 19-526)", "T12 construct": "Bought reagent", "assay": "MSD multispot ECL, antigen spotted, Fab 2383 nM; blank spot 344"}, "[13]": {"target": "T13, rHuman EGF R/Fc Chimera, CF (R&D Systems Cat#344-ER) (human, UniProt P00533 25-645)", "T13 construct": "Bought reagent; also called epidermal growth factor receptor", "assay": "MSD multispot ECL, antigen spotted, Fab 2383 nM; blank spot 344"}, "[14]": {"target": "T14, rHuman ErbB2/Fc Chimera, CF (R&D Systems Cat#1129-ER) (human, UniProt P04626 23-652)", "T14 construct": "Bought reagent; also called human epidermal growth factor 2 receptor", "assay": "MSD multispot ECL, antigen spotted, Fab 2383 nM; blank spot 344"}, "[15]": {"target": "T15, rHuman CD44/Fc Chimera, CF (R&D Systems Cat#3660-CD) (human, UniProt P16070 21-220)", "T15 construct": "Bought reagent", "assay": "MSD multispot ECL, antigen spotted, Fab 2383 nM; blank spot 344"}, "[16]": {"target": "T16, rHuman Erythropoietin R/Fc Chimera, CF (R&D Systems Cat#963-ER) (human, UniProt P19235 25-250)", "T16 construct": "Bought reagent; also called EPO R/Fc; Epo R", "T16 sequence (looked up)": "T5 sequence (looked up)", "assay": "MSD multispot ECL, antigen spotted, Fab 2383 nM; blank spot 344"}, "[17]": {"target": "T17, rHuman IGF-1 sR, (IGF-1 sR), CF (R&D Systems Cat#391-GR) (human, UniProt P08069 31-932)", "T17 construct": "Bought soluble receptor; also called insulin-like growth factor-1 soluble receptor", "assay": "MSD multispot ECL, antigen spotted, Fab 2383 nM; blank spot 344"}, "[18]": {"target": "T18, rHuman HGF R/c-MET/Fc Chimera, CF (R&D Systems Cat#358-MT/CF) (human, UniProt P08581 25-932)", "T18 construct": "Bought reagent; also called HGF R/Fc; hepatocyte growth factor receptor", "T18 sequence (P08581 25-932, change not shown)": "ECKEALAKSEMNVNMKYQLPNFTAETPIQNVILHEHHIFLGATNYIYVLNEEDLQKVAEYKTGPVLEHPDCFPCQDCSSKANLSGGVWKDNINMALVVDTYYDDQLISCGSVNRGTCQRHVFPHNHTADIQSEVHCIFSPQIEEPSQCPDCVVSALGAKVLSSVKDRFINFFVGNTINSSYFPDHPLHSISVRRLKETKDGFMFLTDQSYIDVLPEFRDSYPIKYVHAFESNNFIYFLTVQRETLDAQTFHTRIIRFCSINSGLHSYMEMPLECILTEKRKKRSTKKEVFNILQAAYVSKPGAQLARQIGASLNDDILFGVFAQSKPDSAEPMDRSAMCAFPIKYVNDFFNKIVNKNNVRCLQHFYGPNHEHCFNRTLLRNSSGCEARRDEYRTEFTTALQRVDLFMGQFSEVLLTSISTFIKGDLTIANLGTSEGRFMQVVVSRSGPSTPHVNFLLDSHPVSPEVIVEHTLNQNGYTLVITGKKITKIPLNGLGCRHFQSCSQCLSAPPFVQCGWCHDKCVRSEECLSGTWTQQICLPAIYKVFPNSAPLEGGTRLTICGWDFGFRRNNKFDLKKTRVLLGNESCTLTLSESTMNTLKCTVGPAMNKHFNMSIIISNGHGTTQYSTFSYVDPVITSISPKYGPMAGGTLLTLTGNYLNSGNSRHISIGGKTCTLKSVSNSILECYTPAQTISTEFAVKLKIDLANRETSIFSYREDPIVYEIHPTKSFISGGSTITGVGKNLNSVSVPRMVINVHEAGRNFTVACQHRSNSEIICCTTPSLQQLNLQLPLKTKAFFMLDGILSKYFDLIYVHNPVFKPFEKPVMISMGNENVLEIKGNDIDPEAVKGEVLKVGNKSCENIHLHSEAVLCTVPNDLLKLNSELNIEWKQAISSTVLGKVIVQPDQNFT", "assay": "MSD multispot ECL, antigen spotted, Fab 2383 nM; blank spot 344"}, "[19]": {"target": "T19, Recombinant Human DLL4 (R&D Systems Cat#1506-D4/CF) (human, UniProt Q9NR61 27-524)", "T19 construct": "Bought recombinant protein; also called rHuman DLL4; delta-like protein 4", "assay": "MSD multispot ECL, antigen spotted, Fab 2383 nM; blank spot 344"}},
  "note": "Residue numbers refer to the chain shown, from its start. Names may count otherwise.",
  "data": [
    {"binder": "B1", "values": [
      {"measurement": "ECL signal", "setting": "[1]", "value": 1270},
      {"measurement": "ECL signal", "setting": "[2]", "value": 383},
      {"measurement": "ECL signal", "setting": "[3]", "value": 470},
      {"measurement": "ECL signal", "setting": "[4]", "value": 368},
      {"measurement": "ECL signal", "setting": "[5]", "value": 478}
    ]},
    {"binder": "B2", "values": [
      {"measurement": "ECL signal", "setting": "[6]", "value": 428},
      {"measurement": "ECL signal", "setting": "[7]", "value": 400}
    ]},
    {"binder": "B3", "values": [
      {"measurement": "ECL signal", "setting": "[8]", "value": 1980},
      {"measurement": "ECL signal", "setting": "[9]", "value": 2320},
      {"measurement": "ECL signal", "setting": "[10]", "value": 10300},
      {"measurement": "ECL signal", "setting": "[11]", "value": 1330}
    ]},
    {"binder": "B4", "values": [
      {"measurement": "ECL signal", "setting": "[12]", "value": 690, "unit": "ECL signal"},
      {"measurement": "ECL signal", "setting": "[13]", "value": 621, "unit": "ECL signal"},
      {"measurement": "ECL signal", "setting": "[14]", "value": 454, "unit": "ECL signal"},
      {"measurement": "ECL signal", "setting": "[15]", "value": 559, "unit": "ECL signal"},
      {"measurement": "ECL signal", "setting": "[16]", "value": 658, "unit": "ECL signal"},
      {"measurement": "ECL signal", "setting": "[17]", "value": 527, "unit": "ECL signal"},
      {"measurement": "ECL signal", "setting": "[18]", "value": 762, "unit": "ECL signal"},
      {"measurement": "ECL signal", "setting": "[19]", "value": 11800, "unit": "ECL signal"}
    ]}
  ]
}
